Assay results from the nanobody polyreactivity screen of Harvey et al. (2022).

Assay: yeast display, Sf9 membrane polyspecificity reagent, FACS + sequencing; frameworks hold sequencing errors
Method in brief: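 Synthetic nanobody libraries on Saccharomyces cerevisiae BJ5465 were galactose-induced for 36–48 hours, stained 1 hour at 4 °C with 10% biotinylated, detergent-solubilized Sf9 membrane reagent and enriched on streptavidin microbeads. FACS then separated cells into low and high (top ~1%) gates by anti-HA (expression) and streptavidin (reagent binding) fluorescence. Genes were colony-PCR amplified, MiSeq 2 × 250 sequenced and CDR-length filtered. A clone's polyreactivity label is that of its gate of origin.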
For “QVQLVESGGGLVQAGGSLRLRCAASGSILYSYTMGWYRQAPGKERELVAALIRGGRTNYADSVKGRFTISRDNAKNTVYLQMNSLKPEDTAVYYCNTGSYAWSWRRAMDYWGQGTQVTVSS”, the “polyreactivity (PSR sort gate)” value was “high polyreactivity”. For “QVQLVESGGGLVQAGGSLRLRCAASGSIMGRYAMGWYRQAPGKERELVAAITSSGTRTYYPDSVKGRFTISRDNANNTVYLQMNSLKPEDTAVYYCAAYLAITRSYYIVPYDYWGQGTQVTVSS”, the “polyreactivity (PSR sort gate)” value was “high polyreactivity”. In the case of “QVQLVESGGGLVQAGGSLRLRCAASGSNFYQNAMGGYRQAPGKETALLATIDVNTVSTSYADSVKGRFTISRDNAKNTVYLQMHSLKPEDTAVYYCAAGPDVGVLGDRDPWKNVKYDYWGQGTQVTASS”, the “polyreactivity (PSR sort gate)” value is reported as “low polyreactivity”. In the case of “QVQLVESGGGLVQAGGSLRLRCAASGSTCFLYAMGWYRQAPGKEMELVASISDGSSTNYADSVKGRFTISRDNAKNTVYLQMNSLKPEDTAVYYCDAARWYAHRVDYWGQGTQVTVSS”, the “polyreactivity (PSR sort gate)” value is reported as “low polyreactivity”. With “QVQLVESGGGLVQAGGSLRLRCAASGSTFAYYAMGWYRQAPGKDRELVARIRSSGVSTYYADSVKGRFTISRDNPNNTVSLQMNTLKPEDTAGYYCHTAYAGVRYDSWGQGTQVTVSS” the “polyreactivity (PSR sort gate)” value was “low polyreactivity”. With “QVQLVESGGGLVQAGGSLRLRCAASGSTFGPYVMGWYRQAPGKVRELVAVISGGSTDYADSVKGRFTISRDNAKNNVYLQINSLKPEDTAVYYCNAEYYFYLSPTVYLYDYWGQGTQVTVSS” the “polyreactivity (PSR sort gate)” value was “high polyreactivity”. In the case of “QVQLVESGGGLVQAGGSLRLRCAASGSTFSRYAMGWYRQAAGKERELVAAISWSGGSTYYADSVKGRFTISRDNAKNTVYLQMNSLKPEYTAVYYCAAYTYSFRANHDFWGQGTQVTVSS”, the “polyreactivity (PSR sort gate)” value is reported as “high polyreactivity”. For “QVQLVESGGGLVQAGGSLRLRCAASGSTFWSYAMGWYRQAPGKERELVATITRAGTTNYADSVKGPFTISRDNAKNTVYLQMNSLKPEDTAVYYCAKRKFRWPYQGSYSYIPFGYWGQGTQVTVSS”, the “polyreactivity (PSR sort gate)” value was “high polyreactivity”. For “QVQLVESGGGLVQAGGSLRLRCAASGSTFYWNAMGWYRQAPGKERELVATITYSGGSTYYADSVKGRFTISRDNAKNTVYLQMNSLKPEDTAVYYCATGGLTWHYTYRGYYWGQGTQVTVSS”, the “polyreactivity (PSR sort gate)” value was “low polyreactivity”. In the case of “QVQLVESGGGLVQAGGSLRLRCAASGTTTSNNSMGWYRQAPGKERELVADMSTNGDSTSYADSVKGRYTISRDNAKNTVYLQMNSLKPVDTAVYYCAASTYVTYWEYDYWGQGTQVTVSS”, the “polyreactivity (PSR sort gate)” value is reported as “low polyreactivity”. With “QVQLVESGGGLVQAGGSLRLRCAASGWYRQAAGKERELVAAITYSGGSTYYADSVKGRFTISRDNAKKTVYLQMNSLKPEDTAVYYCAAQPRVDYEFPYRYGYWGLGTQVTVSS” the “polyreactivity (PSR sort gate)” value was “low polyreactivity”. In the case of “QVQLVESGGGLVQAGGSLRLRCAPSGFIFNTMGWYRQAPGKERDLVATISWSDGSTYYADSVKGRFTISRDNAKNTVYLHMNSLKTEDTADYYCAATTDALVGRPRYDYWGQGTQVTVSS”, the “polyreactivity (PSR sort gate)” value is reported as “low polyreactivity”. In the case of “QVQLVESGGGLVQAGGSLRLRGAASGSIFKGNAMGWYRQAPGKERELVAAITRSVARTYYADSVKVRFTISRDNAKNTVYLQMNSLKPEDTAVYDCAADWYQWGGRYYAPRYYYWGQGTQVTVSS”, the “polyreactivity (PSR sort gate)” value is reported as “high polyreactivity”. For “QVQLVESGGGLVQAGGSLRLRSAASGSIYNQNAMGWYRQAHGNRELVAAITNGVSTDYADSVKGRFTISRDNAKNTVYLKLNSLKPEDTAVYYCNAGNYQYPSFEYDYWGLGTQVTVSS”, the “polyreactivity (PSR sort gate)” value was “low polyreactivity”. With “QVQLVESGGGLVQAGGSLRLRWAASGFIFGYYPMGWYRPAPGKERELVAAINSSGGSTYYADSVKGRFTISRDNAKNTVYLQMNSLKPADTAVYYCAARAYQRGIYWGQGTQVTLSS” the “polyreactivity (PSR sort gate)” value was “high polyreactivity”. For “QVQLVESGGGLVQAGGSLRLSCAAAGFTFYIYAMGWYRKAPGKERELVAAITTTTGSTYYADSVKGRFTISRDNAKNTVYLQMNSLKPEDTAVYYCAAEGHYYYFGYYYWGQGTQVTVSS”, the “polyreactivity (PSR sort gate)” value was “low polyreactivity”. With “QVQLVESGGGLVQAGGSLRLSCAAAGSIFSGYAMGWSRQAPGKERELVAAISGSGGSTFYADSVKGRFTISRDNAKKTVYLQMNSLKPEDTAVYYCAARRIAPYARYDYWGQGTQVTVSS” the “polyreactivity (PSR sort gate)” value was “low polyreactivity”. In the case of “QVQLVESGGGLVQAGGSLRLSCAAAGSTFHANAMGWYRPAPGKERELVAAISRSGGSTNYADSVKGRFTISRDIAKNTVYLQMNSLKPEDTAVYYCAVDYRYYQVYYWGQGTQVTVSS”, the “polyreactivity (PSR sort gate)” value is reported as “high polyreactivity”. In the case of “QVQLVESGGGLVQAGGSLRLSCAACGRISTAYAMGGYRQAPGTERELVAAISSGTSTTYADSVKGRFTISRDNAKNTVYLQMNSLKPEDTAVYYCAAPGRYGEYDYWGQGTQVTVSS”, the “polyreactivity (PSR sort gate)” value is reported as “low polyreactivity”. In the case of “QVQLVESGGGLVQAGGSLRLSCAACGRTFRFYAMGWYRKAPGKERELVAAISKSGGSTYYADSVKGRFTISRDNEKNTVYLQMNSLKPEDTAVYYCAAQTYLYDYKYWGQGTQVTVSS”, the “polyreactivity (PSR sort gate)” value is reported as “high polyreactivity”. In the case of “QVQLVESGGGLVQAGGSLRLSCAACGSIFEAYAMGWYRKAPGKERELVAVINYSGGSTYYADSVKGRFTISRDNAKNTVYLQMNSLKPEDTAVYYCAADTVRPWYAYKAHDYWGLGTQVTVSS”, the “polyreactivity (PSR sort gate)” value is reported as “low polyreactivity”. For “QVQLVESGGGLVQAGGSLRLSCAACGSIFPAYAMGWYRQAPGKERELVASITGSGGSTYYADSVKGRFTISRDNAKNTVYLQMNSLKPEDTAVYYCNARYYVYSATVDRYYHFYYWGQGTQVTVSS”, the “polyreactivity (PSR sort gate)” value was “high polyreactivity”. With “QVQLVESGGGLVQAGGSLRLSCAACGSIFPGYAMGWYREAPGKERELVAAITWNGGRTYSADSVKGRFTISRDNAKNTVYLQMNSLKPEDTAVYYCAVAGYAGLSVKYGYWGQGTQVTVSS” the “polyreactivity (PSR sort gate)” value was “high polyreactivity”. With “QVQLVESGGGLVQAGGSLRLSCAACGSIFPRNAMGWYIQAPGKDRALVASLNSGGSTNYADSVKGRFTISRDNAKYTVYLHMNSLKPEDSAGYYCAAVRPWWRNKPQWPRYDYWGQGTQVTVSS” the “polyreactivity (PSR sort gate)” value was “low polyreactivity”. In the case of “QVQLVESGGGLVQAGGSLRLSCAACGSLFGYNAMGWYRQAPGKERELVAAISYSGGSTYYADSVKGRFTISRDNAKNTDFLQMNSLKPEETAVYYCNAYRRYKDEDYWGQGTQVTVSS”, the “polyreactivity (PSR sort gate)” value is reported as “high polyreactivity”. With “QVQLVESGGGLVQAGGSLRLSCAACGSTFIPNGMGLYRQAPGKERELVAAITQDGGSTYYADSVKGRFTISRDNAKNTVYLQMNSLKPEDTAVYYCAASAGPYYEYGYWGQGTQVTVSS” the “polyreactivity (PSR sort gate)” value was “low polyreactivity”. In the case of “QVQLVESGGGLVQAGGSLRLSCAACGSTFWYYAMGWYRQAPGKEREFVAAISKSGDSTNYADSVKGRFTISRDNAKNTVYLQMNSLKPEDTAVYYCAATRSSGRFRYYYWGQGTQVTVSS”, the “polyreactivity (PSR sort gate)” value is reported as “high polyreactivity”. In the case of “QVQLVESGGGLVQAGGSLRLSCAAMGWYRQAPGKERELVATITWSGGSTYYADSVKGRFTISRDNAKNTVYLQMNSLKPEDTAVYYCNARATLLSPANTIRGYDYWGQGTQVTVSS”, the “polyreactivity (PSR sort gate)” value is reported as “low polyreactivity”. In the case of “QVQLVESGGGLVQAGGSLRLSCAAMGWYRQAPGKERELVATLTWSGGSTYYADSVKGRFTISRDNAKNPVYLQMNRLKPEDTAVYYCNARATLLSPANTIRGYDYWGQGTQVTVSS”, the “polyreactivity (PSR sort gate)” value is reported as “low polyreactivity”. With “QVQLVESGGGLVQAGGSLRLSCAASAFIFRYYAIGGYRQAPGNERELVAAIARSGGSTYYADSVKGRFTISRDNAKNTVYLQMNSLKPEVTAVYYCNRGDVIGRQYDSAYGYWGQGTQVTVSS” the “polyreactivity (PSR sort gate)” value was “high polyreactivity”.
